Assay results published in article PMC4820838.

Target: STAT3-NTD-YFP
Test: pair correlation of molecular brightness (pCOMB); pair correlation of brightness fluctuations along a 64-pixel confocal line scan from cytoplasm to nucleus of live HeLa cells; amplitude calibrated against free GFP, YFP or mCherry; cells stimulated with 10 nM oncostatin M for 15 min

Chain of STAT3-NTD-YFP (domain or fragment) (P40763 2-770): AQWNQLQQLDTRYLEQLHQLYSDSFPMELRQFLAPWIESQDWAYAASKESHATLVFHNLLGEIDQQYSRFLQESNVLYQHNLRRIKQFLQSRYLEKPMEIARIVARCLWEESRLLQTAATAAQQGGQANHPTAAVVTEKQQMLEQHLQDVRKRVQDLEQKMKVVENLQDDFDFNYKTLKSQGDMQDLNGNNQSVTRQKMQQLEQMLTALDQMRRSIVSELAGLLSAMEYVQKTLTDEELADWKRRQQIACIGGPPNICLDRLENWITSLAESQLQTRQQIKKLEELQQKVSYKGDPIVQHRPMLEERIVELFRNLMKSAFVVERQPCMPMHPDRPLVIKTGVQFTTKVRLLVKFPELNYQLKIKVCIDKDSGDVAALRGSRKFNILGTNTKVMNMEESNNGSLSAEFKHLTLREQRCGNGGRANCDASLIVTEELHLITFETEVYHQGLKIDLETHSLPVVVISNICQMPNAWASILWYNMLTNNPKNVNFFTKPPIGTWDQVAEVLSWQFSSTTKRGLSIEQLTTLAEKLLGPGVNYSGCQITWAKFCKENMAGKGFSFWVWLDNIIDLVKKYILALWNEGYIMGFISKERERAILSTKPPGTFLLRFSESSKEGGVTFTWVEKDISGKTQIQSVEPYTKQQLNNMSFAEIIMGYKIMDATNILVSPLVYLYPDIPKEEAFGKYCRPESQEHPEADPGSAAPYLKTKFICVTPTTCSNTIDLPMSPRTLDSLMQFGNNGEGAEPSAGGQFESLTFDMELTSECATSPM

stoichiometry N: 2
Substance: STAT3-NTD-YFP (domain or fragment)
